{
  "source": "paper PMC2720833",
  "about": "(Journal of molecular biology, 2009)",
  "test_in_all_cases": "ITC",
  "key": {"[1]": {"molecular_target": "SOCS3 box/elonginBC ternary complex (murine | human | mouse, UniProt Q15370 1-118; P83940 17-112)"}, "[2]": {"molecular_target": "SOCS1 box/elonginBC ternary complex (murine | human | mouse, UniProt Q15370 1-118; P83940 17-112)"}, "[3]": {"molecular_target": "SOCS2 box/elonginBC ternary complex (murine | human | mouse, UniProt Q15370 1-118; P83940 17-112)"}, "[4]": {"molecular_target": "SOCS4 box/elonginBC ternary complex (murine | human | mouse, UniProt Q15370 1-118; P83940 17-112)"}, "[5]": {"molecular_target": "SOCS5 box/elonginBC ternary complex (murine | human | mouse, UniProt Q15370 1-118; P83940 17-112)"}, "[6]": {"molecular_target": "SOCS6 box/elonginBC ternary complex (murine | human | mouse, UniProt Q15370 1-118; P83940 17-112)"}, "[7]": {"molecular_target": "SOCS7 box/elonginBC ternary complex (murine | human | mouse, UniProt Q15370 1-118; P83940 17-112)"}, "[8]": {"molecular_target": "CIS box/elonginBC ternary complex (murine | human | mouse, UniProt Q15370 1-118; P83940 17-112)"}},
  "data": [
    {"binder": "GST-Cullin5 (NTD), N-terminal domain of murine cullin5 (Met1-Leu385) with V341R and L345D (domain or fragment) MATSNLLKNKGSLQFEDKWDFMHPIVLKLLRQESVTKQQWFDLFSDVHAVCLWDDKGSSKIHQALKEDILEFIKQAQARVLSHQDDTALLKAYIVEWRKFFTQCDILPKPFCQLEVTLLGKQSSNKKSNMEDSIVRKLMLDTWNESIFSNIKNRLQDSAMKLVHAERLGEAFDSQLVIGVRESYVNLCSNPEDKLQIYRDNFEKAYLDSTERFYRTQAPSYLQQNGVQNYMKYADAKLKEEEKRALRYLETRRECNSVEALMECCVNALVTSFKETILAECQGMIKRNETEKLHLMFSLMDKVPNGIEPMLKDLEEHIISAGLADMVAAAETITTDSEKYREQLDTLFNRFSKLVKEAFQDDPRFLTARDKAYKAVVNDATIFKL", "values": [
      {"measurement": "stoichiometry N", "setting": "[1]", "result": "~1"},
      {"measurement": "Kd", "setting": "[2]", "result": 1000, "unit": "nM"},
      {"measurement": "stoichiometry N", "setting": "[2]", "result": "~1"},
      {"measurement": "Kd", "setting": "[3]", "result": "~10", "unit": "nM"},
      {"measurement": "stoichiometry N", "setting": "[3]", "result": "~1"},
      {"measurement": "Kd", "setting": "[4]", "result": "~10", "unit": "nM"},
      {"measurement": "stoichiometry N", "setting": "[4]", "result": "~1"},
      {"measurement": "Kd", "setting": "[5]", "result": "~10", "unit": "nM"},
      {"measurement": "stoichiometry N", "setting": "[5]", "result": "~1"},
      {"measurement": "Kd", "setting": "[6]", "result": "~10", "unit": "nM"},
      {"measurement": "stoichiometry N", "setting": "[6]", "result": "~1"},
      {"measurement": "Kd", "setting": "[7]", "result": "~10", "unit": "nM"},
      {"measurement": "stoichiometry N", "setting": "[7]", "result": "~1"},
      {"measurement": "Kd", "setting": "[8]", "result": "~10", "unit": "nM"},
      {"measurement": "stoichiometry N", "setting": "[8]", "result": "~1"}
    ]}
  ]
}
